Experimental data: patent US20260250420A1 (SICHUAN KELUN BIOTECH BIOPHARMACEUTICAL, published 2026)

Columns and labels:
[1] = biological target: T1, mouse PTK7 protein (extracellular sequence of mouse PTK7 with C-terminal 6×His tag) (mouse, UniProt Q8BKG3 23-696); test: BLI (ForteBio), antibody on Protein A sensor
T1 construct: extracellular domain; Expressed transiently in HEK293 cells
T1 sequence: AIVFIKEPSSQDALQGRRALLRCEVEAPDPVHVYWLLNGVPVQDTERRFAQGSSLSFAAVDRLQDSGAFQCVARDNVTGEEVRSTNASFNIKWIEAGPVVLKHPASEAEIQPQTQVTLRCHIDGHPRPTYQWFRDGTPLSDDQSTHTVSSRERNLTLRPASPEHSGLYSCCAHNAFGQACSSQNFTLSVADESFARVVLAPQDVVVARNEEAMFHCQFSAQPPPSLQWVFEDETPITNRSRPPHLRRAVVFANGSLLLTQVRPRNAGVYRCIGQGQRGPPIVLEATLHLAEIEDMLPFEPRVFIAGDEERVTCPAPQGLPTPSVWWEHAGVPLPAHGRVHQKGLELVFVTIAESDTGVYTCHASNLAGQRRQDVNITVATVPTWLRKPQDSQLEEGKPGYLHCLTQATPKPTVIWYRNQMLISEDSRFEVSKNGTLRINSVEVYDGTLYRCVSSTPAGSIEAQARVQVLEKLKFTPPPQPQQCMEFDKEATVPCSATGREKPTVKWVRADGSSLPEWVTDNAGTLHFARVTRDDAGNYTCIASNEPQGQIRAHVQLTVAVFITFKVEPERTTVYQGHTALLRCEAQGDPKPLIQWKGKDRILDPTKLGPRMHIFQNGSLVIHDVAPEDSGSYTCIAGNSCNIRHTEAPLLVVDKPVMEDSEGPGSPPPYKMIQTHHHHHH
From the text: The dynamic affinity of the control Hu24 and candidate antibodies 64A10HZ, 101A6HZ, 4E12HZ and 19C2HZ with human PTK7-His was detected by using ForteBio (Pall life sciences).
ELISA and ForteBio were adopted to detect binding of the anti-human PTK7 chimeric and humanized antibodies to the monkey, mouse and rat PTK7 proteins.

[2] = biological target: T2, human PTK7 protein (extracellular sequence of human PTK7 with C-terminal 6×His tag) (human, UniProt Q13308 31-704); test: ELISA, coated human PTK7 protein 1 µg/ml
T2 construct: extracellular domain; Expressed transiently in HEK293 cells; also called human PTK7-His; human PTK7-His protein
T2 sequence: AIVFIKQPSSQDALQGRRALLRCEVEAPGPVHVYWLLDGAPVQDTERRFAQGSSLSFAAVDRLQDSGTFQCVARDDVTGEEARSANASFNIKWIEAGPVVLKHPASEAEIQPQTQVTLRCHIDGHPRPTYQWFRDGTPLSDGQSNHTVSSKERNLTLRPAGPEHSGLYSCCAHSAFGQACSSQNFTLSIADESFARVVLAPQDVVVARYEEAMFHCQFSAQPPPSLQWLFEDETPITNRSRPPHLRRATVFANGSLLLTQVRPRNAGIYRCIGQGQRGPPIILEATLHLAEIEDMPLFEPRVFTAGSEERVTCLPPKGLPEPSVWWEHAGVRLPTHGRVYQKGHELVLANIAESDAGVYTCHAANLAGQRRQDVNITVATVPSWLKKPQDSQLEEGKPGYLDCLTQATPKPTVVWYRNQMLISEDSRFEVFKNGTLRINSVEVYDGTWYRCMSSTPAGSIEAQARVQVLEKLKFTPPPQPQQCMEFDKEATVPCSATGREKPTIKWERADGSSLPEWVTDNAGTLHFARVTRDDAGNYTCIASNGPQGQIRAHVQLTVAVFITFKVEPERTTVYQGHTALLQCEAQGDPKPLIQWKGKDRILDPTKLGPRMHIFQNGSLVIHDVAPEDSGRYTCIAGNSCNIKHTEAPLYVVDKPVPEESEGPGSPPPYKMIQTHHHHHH
Experimental: Original data was imported into software for nonlinear curve fitting, and EC₅₀ of binding of each antibody to human PTK7 and monkey PTK7 was calculated, respectively. As shown in Table 1 and FIGS. 1A-1B, the screened antibodies could be bound to the human and monkey PTK7 proteins with affinity higher than that of the control antibody Hu24.

[3] = biological target: T2, human PTK7 protein (extracellular …); test: competition ELISA on coated human PTK7 protein; competitor: biotin-labelled 64A10HZ at a fixed concentration
Experimental: The human PTK7 protein was diluted to reach 1 μg/ml by using the CBS coating liquid, coated by a 96-well microtiter plate at a density of 100 μl/well, and stood overnight at 4° C.; and after the plate was washed and blocked, the biotin-labeled antibody and the to-be-detected antibody were added, and incubated for 2 h at room temperature. After the plate was washed, the secondary antibody was added for incubation, and finally was subjected to color development, then the reaction was terminated, and the absorbance at OD₄₅₀ nm was read by the microplate reader. The original data was imported into software for nonlinear curve fitting (four parameters).

B1: 101A6HZ (anti-human PTK7 humanized antibody) (antibody, human IgG1, kappa)
heavy: not shown
light: DIVMTQSPDSLAVSLGERATINCKASQDVGSAVIWYQQKPGQSPKLLIYWASTRHTGVPDRFSGSGSGTDFTLTISSLQAEDVAVYYCQQYSSYPLTFGQGTKLEIKRTVAAPSVFIFPPSDEQLKSGTASVVCLLNNFYPREAKVQWKVDNALQSGNSQESVTEQDSKDSTYSLSSTLTLSKADYEKHKVYACEVTHQGLSSPVTKSFNRGEC
[1]
  binding result: no binding

B2: Hu24 (PTK7 control antibody, taken from Hu24 in the Patent CN201580030255) (antibody)
chain 1: QVQLVQSGPEVKKPGASVKVSCKASGYTFTDYAVHWVRQAPGKRLEWIGVISTYNDYTYNNQDFKGRVTMTRDTSASTAYMELSRLRSEDTAVYYCARGNSYFYALDYWGQGTSVTVSS
chain 2: EIVLTQSPATLSLSPGERATLSCRASESVDSYGKSFMHWYQQKPGQAPRLLIYRASNLESGIPARFSGSGSGTDFTLTISSLEPEDFAVYYCQQSNEDPWTFGGGTKLEIK
[2]
  EC50: 0.0457 µg/mL

B3: 64A10HZ (anti-human PTK7 humanized antibody) (antibody, human IgG1, kappa, V domains shown)
VH: QVQLQESGPGLVKPSETLSLTCTVSGFSLTSYGVYWVRQPPGKGPEWLGVIWTSGNTNYNPSLKSRLTISKDNSKNQVSLKLSSVTAADTAVYYCVKHDGGNYVGVMNYWGQGTLVTVSS
VL: EIVMTQSPDFQSVTPKEKVTITCRASQSISDYLHWYQQKPDQSPKLLIKYASQSISGVPSRFSGSGSGSDFTLTINSLEAEDAATYYCQNGHSFPPTFGQGTKLEIKR
notes: Human IgG1 heavy chain constant region and human Kappa light chain constant region; expressed in CHO-S cells
[3]
  IC50 (read off the curve): ~0.2 µg/mL
